± gives the uncertainty stated by the source.
experiment: amyloid nucleation score (Sup35N fusion, yeast selection) (log enrichment); library NNK2; higher = more nucleation; inactive = no reads after selection
Outline: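 Sup35N fusions to peptides of 20 random codons were expressed in psi-negative yeast, induced 24 hours with 100 μM copper sulfate, and grown 7 days at 30°C on medium lacking adenine and uracil. Input and output plasmid inserts were sequenced by Illumina. The nucleation score is the DiMSum log enrichment of output over input reads, centred on the mode score of non-aggregating sequences. Sequences with under 100 input reads were excluded.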

Substance	amyloid nucleation score
AWSLFYRLLPPWNE	-0.656 ± 1.1
AWTAETFKVLCVVMSY	0.382 ± 0.24
AWVYSMRQVYQLNCLDQIMY	inactive
AWWRGPSFFNPSWKCMNDSS	-0.84 ± 0.54
AYAHH	4.08 ± 0.072
AYMNWCTLKMRR	-0.063 ± 0.28
AYMVDLYYTVWPGIVLLYM	0.152 ± 0.44
AYRQMYTGNVR	3.97 ± 0.067
AYSFDKHKNKGLSTASVGHM	0.894 ± 0.55
AYSIFVFYTYVTTHLRHITR	inactive
AYWVQGCLLQMRMT	0.891 ± 0.22
CADFSGLFG	inactive
CAEAFVMGFSSKGGVINRAL	2.1 ± 0.12
CAGRFRCFLMSCIDCKLGVL	-0.763 ± 1
CALSVVTIHFCHTRAPGTPL	3.65 ± 0.082
CAPQSGKLGG	1.01 ± 0.59
CAQVRLQSAFIYSYMASVGR	3.32 ± 0.056
CAWFLTRWTVLSDLEGFY	-1.35 ± 0.49
CCAQWSNFACSV	5.392 ± 0.038
CCCWRECDNKRSRTLHCEAW	0.557 ± 0.66
CCDNY	-0.778 ± 0.54
CCFRLLGYAGN	-0.961 ± 0.5
CCGLGELNLALLRELSWRVG	1.34 ± 0.25
CCHHR	1.08 ± 0.28
CCKMGRRDLRFLSDFVLCKL	inactive

Substance	amyloid nucleation score
CCNQEVLD	0.575 ± 0.66
CCWAVWDLRGFTRGWRLRRG	0.509 ± 0.16
CDCWYFKC	5.42 ± 0.095
CDGAPSRLGRGLWGWSIMYG	0.921 ± 0.51
CDKQRFSRF	inactive
CDLLVPQRYSAGLPLPVVKE	1.8 ± 0.24
CDMEHTV	-0.302 ± 0.61
CDRFYSSLVNSVGYCLLNAY	1.47 ± 0.21
CDRLELRN	0.065 ± 0.43
CDSVVKRIFGTFAGVHLHME	-0.228 ± 1.1
CDVGFSHRYSSNYDKTWDMI	-0.7 ± 0.78
CDYEYGCQNKRGFRMLLKSW	inactive
CECETVSLTFEHWCTRGRLG	5.156 ± 0.047
CEFQILSN	-0.381 ± 0.56
CERGLFFVMY	-1.15 ± 1.1
CERLNAPHLHQVRIPKRYNM	0.306 ± 0.64
CERWRFI	-0.02 ± 1.1
CFAVAKEWLNAAVHGVGQFP	0.123 ± 0.38
CFDKLAVMACKSSGWHNPPT	0.75 ± 0.43
CFDPGTNRCLPWAVGVGELG	0.959 ± 0.74
CFFRKMPHCRLTTWRRVASI	0.675 ± 0.25
CFLELYSWFKDAVTTFN	inactive
CFLGLYGDIASIFNQ	-0.889 ± 0.45
CFMYT	-0.415 ± 0.21
CFSCFIASGDT	7.439 ± 0.026

Substance	amyloid nucleation score
CFVQLCACRYTIRNWGFRWL	inactive
CFVSNRDYDF	0.773 ± 0.42
CGKCWCEVD	0.359 ± 0.37
CHDMSSACLYSVGWS	inactive
CHISLTKWCRFRVV	-0.014 ± 0.76
CHLLSRSCKFYGD	-0.898 ± 1.1
CHNNFNCPNVLVFLARELSI	4.99 ± 0.079
CHNNFVYRGNAPRRHLEQGV	0.062 ± 0.77
CHVYYVQFVLAD	-0.604 ± 0.76
CIFGMDKHTYQHVVHSTLLV	0.181 ± 0.16
CIFYKVGLFFPCWYIVSVLS	-2.03 ± 0.75
CIKLRR	inactive
CILLGSWLVNFYVWWSRMPI	-0.031 ± 1
CISKLKFLGCRVE	inactive
CITSSSLCSDPYLCLSAKNL	inactive
CKALQLLKGNLIDYCVPFLV	-1.05 ± 0.48
CKCYTAQCWVSRNLMKRPLT	0.579 ± 0.49
CKGLNMFLLFSHSHSCMLRG	-1.35 ± 0.39
CKLEQYRASWINLVTHLDEA	0.073 ± 0.63
CKSSARLIDYTS	-0.682 ± 0.45
CKVHFW	0.596 ± 0.62
CKWTSKIWMRLVRKSEMSVE	1.16 ± 0.27
CLAFNFVFIHPSTGAFSRTS	8.38 ± 0.072
CLAPFHYDQYCKWESDSVSR	-0.438 ± 0.44
CLDPTDTMMRW	0.82 ± 0.3

Substance	amyloid nucleation score
CLIAVNTKGRVVHVYGRTGG	3.53 ± 0.093
CLISRLIVL	-0.038 ± 0.79
CLITLLIMECKYAVDLWGSV	1.04 ± 0.34
CLLHGCHYLSSYLKFSQSWL	inactive
CLMWVISNSYNECHLGEVGQ	6.56 ± 0.087
CLPETLVDFWFKAHDAFNFV	inactive
CLQCYYRMSDNCFHSTA	5.114 ± 0.04
CLSLFTSYV	0.415 ± 0.31
CLSPW	0.202 ± 0.46
CMARPMSVLECHSCWEDALG	0.221 ± 0.31
CMDYHICHIM	3.89 ± 0.11
CMKAYKIRLLVLEDINSSFS	-1.85 ± 0.48
CMKEMLVMLTCYICVSKSLI	3.66 ± 0.079
CMLCARLHH	4.13 ± 0.056
CMYVLFLRWLNQAM	inactive
CNDGGENGWKCTGR	0.497 ± 0.57
CNIAPASKFSIIMPRR	3.74 ± 0.11
CNMIYNDKSLPKW	-0.26 ± 0.32
CNPASYMSALVGGSVSRDSR	-0.076 ± 0.46
CNRPGSGTHGRCTVMDSTMG	0.389 ± 0.56
CNRSCLLGDNPCTVWRITLF	-0.644 ± 0.48
CNSDGWCRIGSAVLPVRSID	-0.441 ± 0.35
CNSIDMTHKVTLKMSFIFIE	6.703 ± 0.061
CNSYEYLRN	-0.035 ± 0.76
CNTCLLSFG	0.814 ± 0.25

Substance	amyloid nucleation score
CNTRRLISMRI	-0.234 ± 0.65
CNYRVA	0.276 ± 0.39
CNYYFVKYQGINGCGTPVKF	3.01 ± 0.12
CPDHNGRFGSWVGEYHVGLS	1.43 ± 0.17
CPFVATGDP	-0.849 ± 1.1
CPIYDRTQGLIGLWCLCNEC	-0.668 ± 0.34
CPSVSSRSRELSLLTDQEVI	0.812 ± 0.4
CPVSAASLSNLFDVAHNGVR	5.354 ± 0.035
CQGVSYHYLTACRNKLCHES	0.107 ± 0.79
CRCISVPCVVFVV	-0.142 ± 0.79
CRDSPVKNQGPYLGFM	inactive
CRINFTFDELVVVSQILTWL	4.07 ± 0.058
CRLCSGLREMQPIRLM	0.77 ± 0.51
CRRENRCNRWFQ	-0.602 ± 0.61
CRRVIAESFYDTSLSCSAVG	0.877 ± 0.47
CRSATEPCVLSC	0.56 ± 0.74
CRSCEIVLGFLLSCNMCVLS	3.79 ± 0.06
CRSFAFTLSNMYLMM	6.52 ± 0.082
CRTRGMVRLYGTRRK	inactive
CRVRYTGGY	0.523 ± 0.35
CSAATSGYYMSQDRLSDTTT	-0.184 ± 1.1
CSCSVIGWFLHPVATVINLT	2.73 ± 0.07
CSEYLCGVKVLTCWFGRRYS	0.174 ± 0.4
CSFGPIVAD	-1.12 ± 0.63
CSFLSLY	-0.485 ± 0.64

Substance	amyloid nucleation score
CSFYRSWVLTNWSANVVFTW	-0.217 ± 0.39
CSKDMSQKLVYRLWSIIVMA	-0.542 ± 0.33
CSKLAGKHVNISVGPLWRAG	0.183 ± 0.53
CSLFLWGLMDLLV	inactive
CSSSNINRFS	2.99 ± 0.12
CSSSVNCMFITC	7.87 ± 0.047
CSVSGNLQISFYGNMPINSF	-0.924 ± 0.78
CTAQRNGKYDHGEDSLRLSR	1.49 ± 0.36
CTFSVF	-1.71 ± 0.48
CTHNTSKVSKMVIVCPRFNL	6.218 ± 0.035
CTKDTHNRVGHLRSHVDGSL	0.572 ± 0.8
CTLRAVMSIVRGYFRCYLVC	0.255 ± 1.1
CTLRSLEAVLRVLIGYALRH	0.223 ± 0.3
CTNAGRFMTWSNFRYIG	0.501 ± 0.8
CTSDVGGSQERVGSIQANSN	2.48 ± 0.2
CTVLSDRTCYSSTERLVRIH	inactive
CTVRDSMAGIYLVDLVSCIR	-0.21 ± 0.6
CVFISLNMNKIYMLDNSGQW	8.445 ± 0.036
CVGGGRQKCEHNVMITLMTF	4.22 ± 0.056
CVGNNMCSGKNF	inactive
CVHTAVVRILIRAKKAGLIT	inactive
CVIYVKVIIMPVSIVDVGSV	-0.351 ± 0.48
CVLGAVYLHRLTDGCDVKFT	0.762 ± 0.81
CWDEQLQPS	0.744 ± 0.45
CWFSVYNTLVGCNLVPTKGD	6.666 ± 0.065

Substance	amyloid nucleation score
CWGGISSALRQ	0.698 ± 0.8
CWNDSRMCR	-0.387 ± 0.26
CWRNTDLKGLGNWPSLLASV	0.589 ± 0.57
CWVIKGRAKCV	-0.26 ± 1
CYARSASGVAIAVRRKRGVQ	1.23 ± 0.18
CYCSSL	-0.253 ± 0.2
CYFCWDFLIGCNFTHNAQ	7.237 ± 0.063
CYGDAWSWEISMFCCVCRGF	7.523 ± 0.042
CYHRKFVLLFFLSNR	inactive
CYKWLAYY	-1.44 ± 0.75
CYLYFIEYWFSEAPYFTSER	-0.959 ± 1.1
CYMVRGYSFSNRWTAHGHEM	2.51 ± 0.21
CYRYVGCSTYSTDQVVCAYK	6.006 ± 0.051
CYVLFIRSDYGTWSMVH	4.53 ± 0.051
CYVNWGCNGEISGIVFDSMK	inactive
CYVSFCKGA	0.049 ± 0.76
CYYMCAYRGVAK	0.637 ± 0.36
DACAFVCLYWNVLTRFELMP	-0.458 ± 0.32
DALGSYWMTAMTF	0.371 ± 0.44
DAMRVASEHIIVTAAAS	2.72 ± 0.12
DANLLFGYFPCPCT	inactive
DATNQRYVPRLFHKMSITGS	0.848 ± 0.57
DCLGVSFNDFQFLLVSAITR	inactive

From the supplement of paper PMC12042874
